Measured values published in US20170174769A1.
Where “and” joins values, the source holds several entries; their conditions need not be identical. Equal values may be shown once.

Columns and labels:
[1] = molecular target: full-length human FGFR1c on HEK293/hFGFR1c/SRE-luc cells (human) (UniProt P11362); assay: FACS on stable HEK293 cells, secondary antibody alone
[2] = molecular target: full-length human KLB on HEK293/hKLB/SRE-luc cells (human) (UniProt Q86Z14); assay: as above
[3] = molecular target: human KLB and human FGFR1c co-expressed on HEK293/hKLB/hFGFR1c/SRE-luc cells (human) (UniProt Q86Z14); assay: as above
[4] = molecular target: full-length human FGFR1c on HEK293/hFGFR1c/SRE-luc cells (human) (UniProt P11362); assay: FACS on stable HEK293 cells
[5] = molecular target: full-length human KLB on HEK293/hKLB/SRE-luc cells (human) (UniProt Q86Z14); assay: FACS on stable HEK293 cells
[6] = molecular target: human KLB and human FGFR1c co-expressed on HEK293/hKLB/hFGFR1c/SRE-luc cells (human) (UniProt Q86Z14); assay: FACS on stable HEK293 cells
[7] = molecular target: cell-surface human FGFR1c alone (amino acids 1-731 of NP_075594) on HEK293/hFGFR1c/SRE-Luc cells of Example 19 (human) (UniProt P11362); assay: cell-based or functional assay
[8] = molecular target: full-length human FGFR1c on HEK293/hFGFR1c/SRE-luc cells (human) (UniProt P11362); assay: cell-based or functional assay
[9] = molecular target: full-length human FGFR1c on HEK293/hFGFR1c/SRE-luc cells (human) (UniProt P11362); assay: FACS on stable HEK293 cells, secondary antibody alone; row shifted one column to the left (c3 = 293/hFGFR1c)
[10] = molecular target: human KLB and human FGFR1c co-expressed on HEK293/hKLB/hFGFR1c/SRE-luc cells (human) (UniProt Q86Z14); assay: FACS on stable HEK293 cells, secondary antibody alone; row shifted one column to the left (c4 = 293/hFGFR1c/hKLB)
[11] = molecular target: mouse KLB and mouse FGFR1c co-expressed on HEK293/mKLB/mFGFR1c/SRE-Luc cells (mouse); assay: FACS on stable HEK293 cells, secondary antibody alone; row shifted one column to the left (c5 = 293/mFGFR1c/mKLB)

Chain of full-length human FGFR1c on HEK293/hFGFR1c/SRE-luc cells (human) (P11362 other isoform, or with tags, fused parts or gaps limits assumed): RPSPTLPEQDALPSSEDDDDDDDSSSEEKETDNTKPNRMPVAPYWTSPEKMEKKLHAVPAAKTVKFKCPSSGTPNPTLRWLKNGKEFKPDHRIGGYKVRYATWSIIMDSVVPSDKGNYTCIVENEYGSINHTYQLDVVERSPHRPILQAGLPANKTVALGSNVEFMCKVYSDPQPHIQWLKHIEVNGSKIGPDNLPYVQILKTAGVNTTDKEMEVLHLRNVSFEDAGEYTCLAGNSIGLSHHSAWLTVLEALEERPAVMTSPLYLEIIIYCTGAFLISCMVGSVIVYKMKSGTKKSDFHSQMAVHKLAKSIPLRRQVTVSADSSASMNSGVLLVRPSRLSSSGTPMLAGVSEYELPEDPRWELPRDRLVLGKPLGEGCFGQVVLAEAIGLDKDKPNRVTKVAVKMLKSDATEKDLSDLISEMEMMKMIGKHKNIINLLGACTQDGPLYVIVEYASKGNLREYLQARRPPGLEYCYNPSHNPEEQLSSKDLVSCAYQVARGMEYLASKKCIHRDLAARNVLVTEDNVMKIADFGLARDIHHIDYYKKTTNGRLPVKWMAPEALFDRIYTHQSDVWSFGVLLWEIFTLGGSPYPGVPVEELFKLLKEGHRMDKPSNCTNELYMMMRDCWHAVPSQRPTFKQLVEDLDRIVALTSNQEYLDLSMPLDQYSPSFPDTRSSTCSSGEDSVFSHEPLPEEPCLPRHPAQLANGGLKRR
Chain of full-length human KLB on HEK293/hKLB/SRE-luc cells (human) (Q86Z14 whole entry): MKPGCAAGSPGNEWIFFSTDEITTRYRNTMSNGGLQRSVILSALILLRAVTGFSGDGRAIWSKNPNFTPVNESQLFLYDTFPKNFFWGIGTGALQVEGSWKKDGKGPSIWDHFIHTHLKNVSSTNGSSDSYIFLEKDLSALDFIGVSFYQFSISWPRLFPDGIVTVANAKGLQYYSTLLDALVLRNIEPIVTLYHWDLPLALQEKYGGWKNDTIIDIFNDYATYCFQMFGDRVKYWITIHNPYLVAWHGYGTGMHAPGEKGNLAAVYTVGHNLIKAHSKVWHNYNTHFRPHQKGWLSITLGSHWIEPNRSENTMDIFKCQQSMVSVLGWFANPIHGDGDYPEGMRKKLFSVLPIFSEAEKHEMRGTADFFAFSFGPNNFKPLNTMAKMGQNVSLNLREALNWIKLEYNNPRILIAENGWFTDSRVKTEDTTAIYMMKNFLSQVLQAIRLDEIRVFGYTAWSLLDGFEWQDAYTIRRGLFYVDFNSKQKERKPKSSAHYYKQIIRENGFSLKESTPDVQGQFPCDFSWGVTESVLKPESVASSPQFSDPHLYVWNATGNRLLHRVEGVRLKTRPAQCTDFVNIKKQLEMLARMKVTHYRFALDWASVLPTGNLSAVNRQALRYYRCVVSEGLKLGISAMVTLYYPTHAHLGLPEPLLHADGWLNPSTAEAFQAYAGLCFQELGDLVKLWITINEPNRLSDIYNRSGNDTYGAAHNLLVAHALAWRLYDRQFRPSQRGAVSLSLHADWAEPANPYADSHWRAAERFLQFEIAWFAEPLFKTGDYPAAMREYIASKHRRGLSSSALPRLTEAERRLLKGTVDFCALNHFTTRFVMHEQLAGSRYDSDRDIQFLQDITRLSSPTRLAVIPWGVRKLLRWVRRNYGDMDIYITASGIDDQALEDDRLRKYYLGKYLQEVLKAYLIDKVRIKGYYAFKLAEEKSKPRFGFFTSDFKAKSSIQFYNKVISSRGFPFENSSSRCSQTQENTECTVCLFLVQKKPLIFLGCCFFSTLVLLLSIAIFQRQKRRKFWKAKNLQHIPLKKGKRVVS
Chain of human KLB and human FGFR1c co-expressed on HEK293/hKLB/hFGFR1c/SRE-luc cells (human) (Q86Z14 whole entry, chain 1 of 2, the tested form may be a part): as the sequence (Q86Z14 whole entry) above
Chain of human KLB and human FGFR1c co-expressed on HEK293/hKLB/hFGFR1c/SRE-luc cells (human) (chain, as listed by the source limits assumed, chain 2 of 2): as the sequence (P11362 other isoform, or with tags, fused parts or gaps limits assumed) above
Chain of cell-surface human FGFR1c alone (amino acids 1-731 of NP_075594) on HEK293/hFGFR1c/SRE-Luc cells of Example 19 (human) (P11362 22-822): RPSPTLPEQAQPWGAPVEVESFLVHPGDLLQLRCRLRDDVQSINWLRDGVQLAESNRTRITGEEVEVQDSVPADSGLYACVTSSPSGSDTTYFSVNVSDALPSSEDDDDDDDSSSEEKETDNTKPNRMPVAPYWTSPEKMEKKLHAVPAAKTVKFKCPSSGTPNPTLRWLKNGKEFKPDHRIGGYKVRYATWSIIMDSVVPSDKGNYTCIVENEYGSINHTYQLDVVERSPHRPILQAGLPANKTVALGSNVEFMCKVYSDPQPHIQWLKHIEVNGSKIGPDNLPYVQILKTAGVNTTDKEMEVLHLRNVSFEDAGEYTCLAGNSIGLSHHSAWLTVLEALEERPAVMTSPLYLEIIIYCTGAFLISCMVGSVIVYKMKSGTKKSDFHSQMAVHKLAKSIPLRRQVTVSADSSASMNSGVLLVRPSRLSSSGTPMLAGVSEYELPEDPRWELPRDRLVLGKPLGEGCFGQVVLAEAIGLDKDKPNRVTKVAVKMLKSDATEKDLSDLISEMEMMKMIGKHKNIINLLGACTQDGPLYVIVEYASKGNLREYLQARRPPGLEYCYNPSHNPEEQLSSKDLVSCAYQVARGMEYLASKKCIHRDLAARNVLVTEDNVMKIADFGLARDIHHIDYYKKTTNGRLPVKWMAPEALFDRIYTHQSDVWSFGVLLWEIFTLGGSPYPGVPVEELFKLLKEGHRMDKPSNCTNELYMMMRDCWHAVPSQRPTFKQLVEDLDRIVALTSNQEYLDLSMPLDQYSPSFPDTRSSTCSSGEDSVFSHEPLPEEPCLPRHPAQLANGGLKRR

Substance | binding ratio to unstained cells [1] | binding ratio to unstained cells [2] | binding ratio to unstained cells [3] | binding ratio to unstained cells [4] | binding ratio to unstained cells [5] | binding ratio to unstained cells [6] | also measured
Anti-Mouse IgG Secondary Antibody | 1 fold | 1 fold | 1 fold |  |  |  | 
Irrelevant IgG control 2 (antibody) |  |  |  | 2 fold | 2 fold | 2 fold | 
Irrelevant IgG control 1 (antibody) |  |  |  | 1 fold | 1 fold | 2 fold | 
human FGF2 (hFGF2; R&D Systems, #233-FB/CF) (from UniProt P09038 143-288) (ligand) |  |  |  |  |  |  | EC50, SRE-luc activation [7]: 1.6 nM; EC50, SRE-luc activation by ligand [8]: 0.4 nM and 0.8 nM
Anti-Human IgG Secondary Antibody | 1 fold | 2 fold | 1 fold |  |  |  | MFI Ratio to unstained cells [9]: 1 fold; MFI Ratio to unstained cells [10]: 1 fold; MFI Ratio to unstained cells [11]: 1 fold
